B1: WEE1 (parent)
chain: INPFTPDSLLLHSSGQCRRRKRTY

Variants of: B1
Assay: protein stability index of a GFP-peptide fusion (GPS, HEK-293T) (PSI 1-6); higher = more stable
Conditions: c terminus: a fixed tail appended
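Further: lentivirally expressed fusions sorted by FACS into six bins by GFP to DsRed ratio, PSI derived from sequencing read proportions per bin multiplied by bin number.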

Variant | protein stability index
L9K | 3.42
L9S | 4.06
L9A | 3.61
L9V | 3.76
L9W | 3.32
L9H | 4.06
L9M | 3.35
Q16D | 3.45
Q16L | 2.81
Q16C | 2.8
Q16P | 3.92
Q16S | 3.61
Q16A | 3.31
Q16K | 3.69
Q16F | 2.65
H12L | 2.86
H12S | 3.87
H12K | 3.54
N2A | 3.09
N2L | 2.37
N2S | 3.54
N2V | 3.39
N2R | 2.9
T23R | 3.56

Variant | protein stability index
T23F | 3.36
T23C | 2.7
T23H | 3.7
T23N | 3.5
T23A | 3.79
T23E | 3.37
T23W | 2.79
R18T | 3.48
R18K | 3.26
R18F | 2.9
R18I | 2.86
R18G | 3.31
R18E | 3.67
R18P | 3.57
R18Q | 3.63
S14M | 2.42
S14I | 3.16
S14D | 3.94
S14W | 2.46
S14H | 2.93
S14A | 3.3
S14N | 3.61
S14T | 3.37
P6V | 2.07

Variant | protein stability index
P6C | 3.04
P6A | 4
P6H | 3.18
P6I | 2.79
P6Q | 3.09
P6G | 3.58
P6F | 2.64
P6M | 2.52
P6K | 3.26
P6N | 4.07
L11G | 3.95
L11Q | 3.39
L11M | 3.94
L11S | 3.96
L11D | 4.11
L11K | 4.2
L11C | 3.75
L11F | 3.01
I1G | 3.81
I1W | 3.83
I1C | 3.17
I1N | 4.17
K21S | 3.18
K21G | 3.58

Variant | protein stability index
K21L | 2.72
K21A | 3.77
K21E | 3.16
K21D | 2.9
K21W | 2.4
K21R | 3.11
K21M | 3.25
T5Y | 2.93
T5E | 3.98
T5D | 4.01
T5L | 3.04
T5G | 3.76
T5C | 2.87
T5F | 2.67
S8H | 3.83
S8E | 4.08
S8Y | 2.65
S8W | 3.5
S8G | 3.44
S8T | 2.81
S8R | 2.71
S8V | 3.25
Y24T | 3.96
Y24G | 4.07

Variant | protein stability index
Y24M | 3.48
Y24C | 3.8
Y24W | 3.36
Y24K | 4.27
Y24D | 4.27
L10Q | 3.5
L10T | 4.03
L10D | 3.9
L10E | 3.41
R22Y | 2.87
R22E | 3.1
R22M | 3.08
R22A | 3.67
R22W | 2.27
R22I | 3.11
R22V | 2.8
G15N | 3.89
G15F | 1.99
G15K | 3.85
G15E | 3.41
G15W | 2.54
G15P | 3.05
G15V | 2.79
G15S | 3.02

Variant | protein stability index
C17H | 3.44
C17M | 4.1
C17D | 4.42
C17Y | 3.04
C17A | 3.64
C17F | 3.06
C17V | 3.22
C17I | 4.01
F4Y | 3.31
F4V | 4.08
F4Q | 4.22
F4W | 3.87
F4K | 4.27
F4I | 3.79
F4H | 4.25
F4M | 4.04
D7L | 2.73
P3G | 3.11
P3T | 3.06
P3V | 2.71
P3H | 3.93
P3R | 3.4
P3N | 3.12
P3D | 3.33

Variant | protein stability index
P3Y | 2.38
S13Y | 3.29
S13T | 3.74
S13A | 2.6
S13P | 3.63
S13D | 4.08
S13F | 2.3
S13H | 4.14
S13R | 3.12
S13N | 3.74
R20N | 3.45
R20T | 3.32
R20D | 3.12
R20E | 3.15
R20S | 2.97
R20F | 2.48
R19C | 3.01
R19V | 2.69
R19L | 3.03
R19E | 3.8
R19Y | 2.83
R19M | 2.91
R19W | 2.66
